Experimental data from US20260193376A1 (Novo Nordisk, published 2026).

B1: one-armed (OA) mAb11-0174 (antibody, V domains shown)
VH: EVQLVESGGGLVQPGRSLKLSCAASGFTFHDYAMHWVRQAPGKGLEWVSGISWKGDIGGYVDSVKGRFTISRDNAKNSLYLQMNSLRAEDTALYYCAKSYGSGSFYNAFDSWGQGTLVTVSS
VL: DIQMTQSPSTLSASVGDRVTITCRASQSISSWLAWYQQKPGKAPKFLIYKASKLDRGTPSRFSGSGSGTEFTLTISSLQPDDFATYYCLEYSSYIRTFGQGTKVEIK
B2: one-armed (OA) mAb11-0965 (antibody, V domains shown)
VH: EVQLVESGGGLVQPGRSLRLSCAASKFTFHDYAMHWVRQAPGKGLEWVSGISWKGDIGGYADSVKGRFTISRDNAKNSLYLQMNSLRAEDTALYYCAKSYGSGSFYNAFDSWGQGTLVTVSS
VL: DIQMTQSPSTLSASVGDRVTITCRASQSISSWLAWYQQKPGKAPKFLIYKASKLERGTPSRFSGSGSGTEFTLTISSLQPDDFATYYCLEYSSYIRTFGQGTKVEIK
B3: one-armed (OA) mAb01-9016 (antibody, V domains shown)
VH: EVQLVESGGGLVQPGRSLKLSCAASGFTFDDYAMHWVRQVPGKGLEWVSGISWRGDIGGYVDSVKGRFTISRDNAKNSLYLQLNSLRAEDTALYYCVKSYGSGSFYNAFDSWGQGTLVTVSS
VL: DIQMTQSPSTLSASAGDRVTITCRASQSISSWLAWYQQKPGKAPKFLIYKASRLERGVPSRFSGSGSGTEFSLTISSLQPDDFATYYCLEYSSYIRTFGQGTKVEIK
B4: one-armed (OA) mAb11-0937 (antibody, V domains shown)
VH: EVQLVESGGGLVQPGRSLRLSCAASGFTFHDYAMHWVRQVPGKGLEWVSGISWKGDIGGYVDSVKGRFTISRDNEKNSLYLQMNSLRAEDTALYYCVKSYGSGSFYNAFDSWGQGTLVTVSS
VL: DIQMTQSPSTLSASVGDRVTITCRASQSISSWLAWYQQKPGKAPKFLIYKASRLDRGSPSRFSGSGSGTEFSLTISSLQPDDFATYYCLEYSSYIRTFGQGTKVEIK
B5: one-armed (OA) mAb11-1030 (antibody, V domains shown)
VH: EVQLVESGGGLVQPGRSLRLSCAASKFTFHDYAMHWVRQVPGKGLEWVSGISWKGDIGGYVDSVKGRFTISRDNAKNSLYLQMNSLRAEDTALYYCAKSYGSGSFYNAFDSWGQGTLVTVSS
VL: DIQMTQSPSTLSASVGDRVTITCRASQSISSWLAWYQQKPGKAPKFLIYKASKLDRGTPSRFSGSGSGTEFTLTISSLQPDDFATYYCLEYSSYIRTFGQGTKVEIK
B6: one-armed (OA) mAb11-0938 (antibody, V domains shown)
VH: EVQLVESGGGLVQPGRSLRLSCAASGFTFHDYAMHWVRQVPGKGLEWVSGISWKGDIGGYVDSVKGRFTISRDNEKNSLYLQMNSLRAEDTALYYCVKSYGSGSFYNAFDSWGQGTLVTVSS
VL: DIQMTQSPSTLSASVGDRVTITCRASQSISSWLAWYQQKPGKAPKFLIYKASRLDRGVPSRFSGSGSGTEFSLTISSLQPDDFATYYCLEYSSYIRTFGQGTKVEIK
B7: one-armed (OA) mAb11-0723 (antibody, V domains shown)
VH: EVQLVESGGGLVQPGRSLKLSCAASGFTFDDYAMHWVRQVPGKGLEWVSGISWKGDIGGYVDSVKGRFTISRDNAKNSLYLQLNSLRAEDTALYYCAKSYGSGSFYNAFDSWGQGTLVTVSS
VL: DIQMTQSPSTLSASAGDRVTITCRASQSISSWLAWYQQKPGKAPKFLIYKASRLDRGTPSRFSGSGSGTEFSLTISSLQPDDFATYYCLEYSSYIRTFGQGTKVEIK
B8: one-armed (OA) mAb11-0931 (antibody, V domains shown)
VH: EVQLVESGGGLVQPGRSLRLSCAASGFTFHDYAMHWVRQVPGKGLEWVSGISWKGDIGGYVDSVKGRFTISRDNEKNSLYLQMNSLRAEDTALYYCVKSYGSGSFYNAFDSWGQGTLVTVSS
VL: DIQMTQSPSTLSASVGDRVTITCRASQSISSWLAWYQQKPGKAPKFLIYKASRLDRGLPSRFSGSGSGTEFSLTISSLQPDDFATYYCLEYSSYIRTFGQGTKVEIK
B9: one-armed (OA) mAb11-1021 (antibody, V domains shown)
VH: EVQLVESGGGLVQPGRSLRLSCAASKFTFHDYAMHWVRQAPGKGLEWVSGISWKGDIGGYVDSVKGRFTISRDNAKNSLYLQMNSLRAEDTALYYCAKSYGSGSFYNAFDSWGQGTLVTVSS
VL: DIQMTQSPSTLSASVGDRVTITCRASQSISSWLAWYQQKPGKAPKFLIYKASKLDRGTPSRFSGSGSGTEFTLTISSLQPDDFATYYCLEYSSYIRTFGQGTKVEIK
B10: one-armed (OA) mAb11-1033 (antibody, V domains shown)
VH: EVQLVESGGGLVQPGRSLRLSCAASKFTFHDYAMHWVRQVPGKGLEWVSGISWKGDIGGYVDSVKGRFTISRDNAKNSLYLQMNSLRAEDTALYYCAKSYGSGSFYNAFDSWGQGTLVTVSS
VL: DIQMTQSPSTLSASVGDRVTITCRASQSISSWLAWYQQKPGKAPKFLIYKASKLERGTPSRFSGSGSGTEFTLTISSLQPDDFATYYCLEYSSYIRTFGQGTKVEIK
B11: one-armed (OA) mAb11-0929 (antibody, V domains shown)
VH: EVQLVESGGGLVQPGRSLRLSCAASGFTFHDYAMHWVRQVPGKGLEWVSGISWKGDIGGYVDSVKGRFTISRDNEKNSLYLQMNSLRAEDTALYYCVKSYGSGSFYNAFDSWGQGTLVTVSS
VL: DIQMTQSPSTLSASVGDRVTITCRASQSISSWLAWYQQKPGKAPKFLIYKASRLDRGIPSRFSGSGSGTEFSLTISSLQPDDFATYYCLEYSSYIRTFGQGTKVEIK
B12: one-armed (OA) mAb11-0933 (antibody, V domains shown)
VH: EVQLVESGGGLVQPGRSLRLSCAASGFTFHDYAMHWVRQVPGKGLEWVSGISWKGDIGGYVDSVKGRFTISRDNEKNSLYLQMNSLRAEDTALYYCVKSYGSGSFYNAFDSWGQGTLVTVSS
VL: DIQMTQSPSTLSASVGDRVTITCRASQSISSWLAWYQQKPGKAPKFLIYKASRLDRGNPSRFSGSGSGTEFSLTISSLQPDDFATYYCLEYSSYIRTFGQGTKVEIK
B13: one-armed (OA) mAb11-1039 (antibody, V domains shown)
VH: EVQLVESGGGLVQPGRSLKLSCAASKFTFHDYAMHWVRQAPGKGLEWVSGISWKGDIGGYVDSVKGRFTISRDNAKNSLYLQMNSLRAEDTALYYCAKSYGSGSFYNAFDSWGQGTLVTVSS
VL: DIQMTQSPSTLSASVGDRVTITCRASQSISSWLAWYQQKPGKAPKFLIYKASKLDRGTPSRFSGSGSGTEFTLTISSLQPDDFATYYCLEYSSYIRTFGQGTKVEIK
B14: one-armed (OA) mAb11-1042 (antibody, V domains shown)
VH: EVQLVESGGGLVQPGRSLKLSCAASKFTFHDYAMHWVRQAPGKGLEWVSGISWKGDIGGYVDSVKGRFTISRDNAKNSLYLQMNSLRAEDTALYYCAKSYGSGSFYNAFDSWGQGTLVTVSS
VL: DIQMTQSPSTLSASVGDRVTITCRASQSISSWLAWYQQKPGKAPKFLIYKASKLERGTPSRFSGSGSGTEFTLTISSLQPDDFATYYCLEYSSYIRTFGQGTKVEIK
B15: one-armed (OA) mAb11-0939 (antibody, V domains shown)
VH: EVQLVESGGGLVQPGRSLRLSCAASGFTFHDYAMHWVRQVPGKGLEWVSGISWKGDIGGYVDSVKGRFTISRDNEKNSLYLQMNSLRAEDTALYYCVKSYGSGSFYNAFDSWGQGTLVTVSS
VL: DIQMTQSPSTLSASVGDRVTITCRASQSISSWLAWYQQKPGKAPKFLIYKASRLDRGWPSRFSGSGSGTEFSLTISSLQPDDFATYYCLEYSSYIRTFGQGTKVEIK
B16: one-armed (OA) mAb11-0932 (antibody, V domains shown)
VH: EVQLVESGGGLVQPGRSLRLSCAASGFTFHDYAMHWVRQVPGKGLEWVSGISWKGDIGGYVDSVKGRFTISRDNEKNSLYLQMNSLRAEDTALYYCVKSYGSGSFYNAFDSWGQGTLVTVSS
VL: DIQMTQSPSTLSASVGDRVTITCRASQSISSWLAWYQQKPGKAPKFLIYKASRLDRGMPSRFSGSGSGTEFSLTISSLQPDDFATYYCLEYSSYIRTFGQGTKVEIK
B17: one-armed (OA) mAb11-0935 (antibody, V domains shown)
VH: EVQLVESGGGLVQPGRSLRLSCAASGFTFHDYAMHWVRQVPGKGLEWVSGISWKGDIGGYVDSVKGRFTISRDNEKNSLYLQMNSLRAEDTALYYCVKSYGSGSFYNAFDSWGQGTLVTVSS
VL: DIQMTQSPSTLSASVGDRVTITCRASQSISSWLAWYQQKPGKAPKFLIYKASRLDRGQPSRFSGSGSGTEFSLTISSLQPDDFATYYCLEYSSYIRTFGQGTKVEIK
B18: one-armed (OA) mAb11-1073 (antibody, V domains shown)
VH: EVQLVESGGGLVQPGRSLRLSCAASGFTFHDYAMHWVRQVPGKGLEWVSGISWKGDIGGYVDSVKGRFTISRDNAKNSLYLQMNSLRAEDTALYYCAKSYGSGSFYNAFDSWGQGTLVTVSS
VL: DIQMTQSPSTLSASVGDRVTITCRASQSISSWLAWYQQKPGKAPKFLIYKASKLDRGTPSRFSGSGSGTEFTLTISSLQPDDFATYYCLEYSSYIRTFGQGTKVEIK
B19: one-armed (OA) mAb11-1024 (antibody, V domains shown)
VH: EVQLVESGGGLVQPGRSLRLSCAASKFTFHDYAMHWVRQAPGKGLEWVSGISWKGDIGGYVDSVKGRFTISRDNAKNSLYLQMNSLRAEDTALYYCAKSYGSGSFYNAFDSWGQGTLVTVSS
VL: DIQMTQSPSTLSASVGDRVTITCRASQSISSWLAWYQQKPGKAPKFLIYKASKLERGTPSRFSGSGSGTEFTLTISSLQPDDFATYYCLEYSSYIRTFGQGTKVEIK
B20: one-armed (OA) mAb11-0923 (antibody, V domains shown)
VH: EVQLVESGGGLVQPGRSLRLSCAASGFTFHDYAMHWVRQVPGKGLEWVSGISWKGDIGGYVDSVKGRFTISRDNEKNSLYLQMNSLRAEDTALYYCVKSYGSGSFYNAFDSWGQGTLVTVSS
VL: DIQMTQSPSTLSASVGDRVTITCRASQSISSWLAWYQQKPGKAPKFLIYKASRLDRGCPSRFSGSGSGTEFSLTISSLQPDDFATYYCLEYSSYIRTFGQGTKVEIK
B21: one-armed (OA) mAb11-0962 (antibody, V domains shown)
VH: EVQLVESGGGLVQPGRSLRLSCAASKFTFHDYAMHWVRQAPGKGLEWVSGISWKGDIGGYADSVKGRFTISRDNAKNSLYLQMNSLRAEDTALYYCAKSYGSGSFYNAFDSWGQGTLVTVSS
VL: DIQMTQSPSTLSASVGDRVTITCRASQSISSWLAWYQQKPGKAPKFLIYKASKLDRGTPSRFSGSGSGTEFTLTISSLQPDDFATYYCLEYSSYIRTFGQGTKVEIK

target: human plasma-derived Factor IXa (human, UniProt P00740 47-191; P00740 227-461); assay: cell-based or functional assay
Sequence (P00740 47-191, chain 1 of 2): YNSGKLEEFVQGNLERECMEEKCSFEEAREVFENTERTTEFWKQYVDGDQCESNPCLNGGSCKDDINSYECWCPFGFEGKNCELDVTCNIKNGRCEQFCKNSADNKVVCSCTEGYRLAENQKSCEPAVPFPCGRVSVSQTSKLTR
Sequence (P00740 227-461, chain 2 of 2): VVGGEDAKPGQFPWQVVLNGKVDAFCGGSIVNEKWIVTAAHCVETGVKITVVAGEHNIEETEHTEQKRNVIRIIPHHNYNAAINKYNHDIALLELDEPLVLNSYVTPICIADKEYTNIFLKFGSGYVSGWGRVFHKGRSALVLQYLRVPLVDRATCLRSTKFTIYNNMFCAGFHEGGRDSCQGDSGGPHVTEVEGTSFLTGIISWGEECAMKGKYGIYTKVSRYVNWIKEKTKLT

Row | Binder | Stimulation Index, FXa generation assay, 800 nM OA antibody [fold] | Stimulation Index, FXa generation assay, 1600 nM OA antibody [fold]
1 | B1 | 3690 | –
2 | B2 | 2860 | –
3 | B3 | – | 5900
4 | B4 | 2680 | –
5 | B5 | 5750 | –
6 | B6 | 1820 | –
7 | B7 | 3770 | –
8 | B8 | 1880 | –
9 | B9 | 4650 | –
10 | B10 | 5130 | –
11 | B11 | 1560 | –
12 | B12 | 1610 | –
13 | B13 | 3960 | –
14 | B14 | 4320 | –
15 | B15 | 2010 | –
16 | B16 | 1690 | –
17 | B17 | 1570 | –
18 | B18 | 6150 | –
19 | B19 | 3650 | –
20 | B20 | 2820 | –
21 | B21 | 3370 | –
